This data set in a line: soluble on expression in E. coli; label from the status in PepcDB or PDB records.
On to “MGSDKIHHHHHHMSEDQKRILEQQLWNIANTLRGKMNADEFRDYILGFIFYKYLSEKMEIFANDILKQDKISFREITPKLKQGKEYLEAIREEALEKLGYFLKPEELFSEVAKRGRGSNDEGENFDEAKTNFILEDLQKILINIQLSTMGTDSEEDFDNLFEDMDLNSTKLGKTPDARNAIIAKVLTHLDKIDFKLEDLESDVLGDSYEYLIGQFASGAGKKAGEFYTPQQVSKILAKIVTTEKHKLKSVYDPTCGSGSLLLRVAREVKDVAKFYGQEMNRTTYNLARMNMILHGVHYRKFDIKQEDTLEHPQHMGQQFEAIVANPPFSAQWSANPLHLSDDRFSQYGKLAPASKADYAFVQHMVHHLAENGIMALVLPHGVLFRGGAEQHIRKYLIEQKNYLDAVIGLPGNIFYGTSIPTCILVIKKCREMPDNILFIDASKEFEKVKTQNILREKHIDKIVDTYRSRKEIEKYSHCASLKEIAENDFNLNIPRYVDTFEEEEEIDIQAVMAEIKNLEAKRTDLDKQIDVYMKELGLVF”, for which the “soluble on expression in E. coli” value was “not soluble”.
Take “MAGHSKWANIKHRKAAQDAQRGKIFTKLIRELVTAAKIGGGDVSANPRLRAAVDKALSNNMTRDTINRAIDRGVGGGDDTNMETKIYEGYGPGGTAVMVECLSDNANRTISQVRPSFTKCGGNLGTEGSVGYLFSKKGLILIAEADEDALTEAAIEAGADDIQPQDDGSFEIYTAWEDLGSVRDGIEAAGFKVQEAEVTMIPSTTVDLDIETAPKLLRLIDMLEDCDDVQNVYHNGEICDEVASQL”: the “soluble on expression in E. coli” value was “not soluble”.
Consider “MGSDKIHHHHHHMETRRDERIGQLLQALKRSDKLHLKEAATLLGVSEMTIRRDLNHKSAPVVLLGGYIVLEPRSASHYLLSDQKSRLVEEKRRAAQLAAGLVQAHQTVFIDCGTTTPWIIEAIDNDLPFTAVCYSLNTFLALQDKPHCRAILSGGEFHASNAIFKPLDFHETLNNICPDIAFYSAAGVHTSKGATCFNLEELPVKHWAMTMAQCHVLVVDHSKFGKVRPARMGELSRFDTIISDRRPDEAFVAYAKAQQITLMY”, for which the “soluble on expression in E. coli” value is listed as “not soluble”.
Regarding “MAHHHHHHMLPILLSTLEKDESATLRERAGMALELLVREAQTQRLLLGGGSSEDAPLSTLAGKQTAPTPHLAAILASLRDESDEVVVAALRVVLACHMAHNAFSVTAALVQGGLIPVLIDLIQSTNTMTQMVACCATRQLFQVKEAHVELLKLGIVATLTKAIIKAEAVALVAEAAEVASLIAEYAQGRRDAVACGTLASLLPHLHNANLTLRVAVYSAAAQITVLEAAKVQAMEVGYPEQLVGELAREDERDVLMHMLRLIYNLAEWPTARVTLRECLPRIAELLQIAEGDEGVMFALSQADRILKKKVFPV”, the “soluble on expression in E. coli” value was “not soluble”.
Consider “MGSDKIHHHHHHMDEKGLADCHTPTNGGNQKIKFVNEPNLYRIIFRSNKPEAKQFQDWVFNEVLPTIRKTGKYEAPKPVEKRNYLNNSDMNNIKRLIWTCADHFGHKGSFNQAIWACLRDVTGVPSPAKFEVEHLPVLAEEFKRILNIVQPFLDMQYECQTLLIKRVIRGRADHTVLQALLDNMRNAANQSDNQFKEALQKQLPAMFNQECLNLINRRPNHYDHYEYNERLI”, for which the “soluble on expression in E. coli” value is “not soluble”.
With “METSMRYTSNSKSMKIHAKEKVPVNSKTHLQLHGELDTGTGAPSYFCAMIRHFFPEASTGLGVGLHYDKRQKLRCLVRGKKEFPVRADKRVTFNIKGRCDIDQDLNQKNPKGAAEFAWNIMDFKEDQDVRIKVGYEMFDKVPYMQIRENNWTLNANMKGKWNLRYDL” the entry was “not soluble”; with “PQPGAARGLGRVAYADARQHRDILQSLVRALNGSRRRIWLATPYFLPTWKVRRALRKAAQRGVEVRLLLAGRLTDHAPVRYAGQRYYPRLLRAGVRIHEYQPRFLHLKMVMVDDWVSVGSCNFDHWNLRFNLDANLEALDPDFTNEAAASLLADFADSREVTLAMWRARPLWMR”, “not soluble”.
With “MFRGIVQGRGVIRSISKSEDSQRHGIAFPEGMFQLVDVDTVMLVNGCSNTVVRILGDMVYFDIDQALGTTTFDGLKEGDQVNLEIHPKFGEVVGRGGLTGNIKGTALVAAIEENDAGFSVLIDIPKGLAENLTVKDDIGIDGISLPITDMSDSIITLNYSRDLLASTNIASLAKDVKVNVEILNEW” the entry was “soluble”; with “MSLIQLRPCPKSYTRDQDKATTPAETVRRVRERLASLDISILAETRRVDVGRLGIPVFLSVCGADARAVMPTRKQMGKGASLEQAQASALMELMERYSFFTFWRDMPGMVEATWSEARNRFGDALIPVDEILHSVHDTLSPDDAVRALDLWRWKFFPATDITHGREVWLPLDWFKKLGEFNGSSAGNTEEESILQGSCELVERHVCCLIDRTQPELPTIDPASLDDPVLLELAAAFERNGIRLVLKDFSMGMPVPTVGAIAWDPATFPERSEIVYTAGTSSSPVKAAIRAVTEVAQLAGDFCTGACYEASGLSKYESLDDIAWLVAGPVVALDTLPSVETDDIRDELAALCDGLAATGHTLYSVSTMNPDVGVNTHYNIVPGFHFRERDRNAEGHHHHHH”, “not soluble”.
With “MELTKIRVKTIGYYHRDSEMKATPGRLPKNLNLACLTPMQNKEKFPNMNIEVLDSGKGELMMESLLDYISQTSCLQDEQPGFVTNKQLLVALTRTGSLAIHLFRWNGTTYLLKFNEDESVNQNFGAAFEHHCTKTDDPINENEPVRKAVMIAEIPRGKGVHSVLYSGQIDAVDNEVNRMHYELKVLSGGLTEHFWKTKSCMFYWQAVFGKADVLIIGSRTGKCPNDPKTTWPKEWPPFSVYQVETLEQNQIPESAAEECLKKVLMDPAPEWKPLEGEESVCYFLDLVEEYVKNNGDCYVFTRSDENPDWIVKEDEESVAEFRDVVRHYLAS” the entry was “not soluble”; with “MIVVVNEQQVEVDEQTTIAALLDSLGFGDRGIAVALNFSVLPRSDWATKICELRKPVRLEVVTAVQGG”, “soluble”; with “MQSVELPETHQMLLQTCRDFAEKELFPIAAQVDKEHLFPAAQVKKMGGLGLLAMDVPEELGGAGLDYLAYAIAMEEISRGCASTGVIMSVNNSLYLGPILKFGSKEQKQAWVTPFTSGDKIGCFALSEPGNGSDAGAASTTARAEGDSWVLNGTKAWITNAWEASAAVVFASTDRALQNKSISAFLVPMPTPGLTLGKKEDKLGIRGSSTANLIFEDCRIPKDSILGEPGMGFKIAMQTLDMGRIGIASQALGIAQTALDCAVNYAENRMAFGAPLTKLQVIQFKLADMALALESARLLTWRAAMLKDNKKPFIKEAAMAKLAASEAATAISHQAIQILGGMGYVTEMPAERHYRDARITEIYEGTSEIQRLVIAGHLLRSYRSAENLYFQ”, “soluble”.
As to “SNAMSELSYRRILLKLSGEALMGDGDYGIDPKVINRLAHEVIEAQQAGAQVALVIGGGNIFRGAGLAASGMDRVTGDHMGMLATVINALAMQDALEKLGAKVRVMSAIKINDVCEDFIRRRAIRHLEKGRIAIFAAGTGNPFFTTDSGAALRAIEIGADLLLKATKVDGVYDKDPKKHSDAVRYDSLTYDEVIMQGLEVMDTAAFALARDSDLPLRIFGMSEPGVLLRILHGAQIGTLVQGRS”, the “soluble on expression in E. coli” value is given as “soluble”.
As for “MKQTVLLLFTALFLSGCSVASADDSVPRFTEEGKYIGSADPHTIAVSLNGEETMIQVPKDKRDECESLPDQTHVLVKYTKKDNGTLQLEDIQLRKTS”, the “soluble on expression in E. coli” value was “soluble”.
“MTPPRMRISGENELVQALLEHGHVLVEASEAELIFDPTQLVRRGQIVAHLGHATLADLDAYSSGHAFVLTELMPQIYAVTASDELAGMVAELLISELGGRVVHVPESQRDRLTAGLACAGFIGQVRSEARNLLTEALGNAHHADEVVEQLTDAVAPPLNVAALERGYHAIDSVGTKRLYAQLARRSGEVFRNNDVELWAMNQEQNNT”: the “soluble on expression in E. coli” value is “not soluble”.
With “MGSDKIHHHHHHMELEEIVDSERNIHKTIEVLGKGGQGIVYRCLDKDVAIKVVLRDGDFIKDKESLKQYEKSVLNLSFKPIESHFPMSIPLVTLKEKQGYVMKMAEGYEPLKTFLKKPSILENEEKDGIFRINNAIQELCKDNHYMTLSLSYYSQTQGLRSRLKILTHLAKLLFRLQSKGLVYGDLNLNNVFYKDNSAFLIDADNVRYESEKALCVIFTPNYGALEISQTSKNSDTTNYNTMLSDTFSFAIITYELLNMVHPFDGNKADDSVENFIELPWIEDRKDDSNRSCGLLPFFLTRDLKNLLA” the entry was “not soluble”.
“MGSDKIHHHHHHMAKAKTAYSCTECGGQTPKWQGQCPSCMAWNTLVESVVEAAPSQNRYAALAQSSGLQKLADVEAADVPRHPTGIHEFDRVLGGGLVPGGVVLIGGDPGIGKSTLLLQTLCHIGGMRKAVYVSGEESAQQIAMRAKRLGLDAGPVELLAEISLEKILAILQQHKPEVAVIDSIQTLYSEALQSAPGSVAQVRECSAQLTRFAKQTGVTMILVGHVTKEGSLAGPRVLEHIVDTVLYFEGGQNSSFRLVRAFKNRFGAVNELGVFAMTEKGLREVSNPSALFLSHHAEQVAGSCITVTQEGSRPLLVEVQALVDEAHAPNPKRLCVGLEQNRLAMLLAVLHRHAGVACFDQDVFINAVGGVRISEPAVDLAVLLAIVSSLKNKPLNNKLIVFGEVGLAGEVRPVQRGQERLREAAKLGFTHAIVPKANLPKQVIDGLDVKGVERLDQALQLLRNG”: the “soluble on expression in E. coli” value was “not soluble”.
Regarding “MAHHHHHHERASLITTGPYGHQSGAVYVGNYKVVNRHLATHVDWQNCVWEDYNRDLLVSTTTAHGCDTIARCQCTTGVYFCASKSKHYPVSFEGPGLVEVQESEYYPKRYQSHVLLATGFSEPGDAGGILRCEHGVIGLVTMGGEGVVGFADVRDLLWLEDDAMEQ”, the “soluble on expression in E. coli” value is on record as “soluble”.
With “LIEGSERLSGLTDVDEVIKDLSRLLRKLVKTRWIAVYFFDRERRDFAPARSTGLPASFLPVFREMPLAPDKIPLLKSMLRKRQHLMLTDPGSSDLLTPKLRKLLRNLCVLAVPMVVRTQVIGAVFMARTRDNPPFSDAETAIIRDLVSHAALVVSHMQLFDE”, the “soluble on expression in E. coli” value is “soluble”.
For the sequence “MAIDNIKAYVHLSDADIEEIGRRLDQIKAEVTQSLGARDVAYIKRLIRTQRSLEAAGRFALLFAGNKKCWWLGTGLLSTAKILENLEIGHNVLHGQWDWMNDPEIHSTTWEWDIVCPSSQWMHSHNFVHHTYTNVLGMDNDVGYGILRVTRDRKWTPLHAFQPAVNTVLAAMFQWAVGYYDVELGRYLTKRADWNDTKDKFWETTNKAGRQLARDYVFYPALARKAFPQAVKANAVANLVRSVWAYSVIFCGHFPDEAETFTKEQFKNEDHNQWYLRQMLGSANFYGGKLLTIMSGNLNYQIEHHLFPDMPSNRLAEVGEKVRALCDEYDLPYNVDSFPAQLFKVQKTLLKLTLPNKYLVASPDNAPEVRSNRAFSQNPEIENQLAGGSNGSGLRTGLKLLKRLRPSIKDAILIYSGRKPRGNQQR”, the “soluble on expression in E. coli” value was “not soluble”.
On to “MGSDKIHHHHHHMTIKETSRSEFITLRGLRYHVRQWGTPGAPKLFMLHGWMDVAASFQFLVDCLERDWHVIAPDWRGFGETDWPTRYPGTESYWFADYIADLEALLDHYQPNGQVDLVGHSMGANVACLYAGIRPERVHRVVDLEGFGLTQTRAEQAPKRYARWLDELRQRPELRTYDDVSGVAARLQKTNPRLPDDRAAFLAEHWSRRNEAGQWEILGDPAHKLVNPVLYRVDEVMAIWAEVSAPVLHVEARDSATLRHIAHKQTLEEFRERFRAFRDFREVVIDDAGHMLHHDQPAAVAALIESFIA”, for which the “soluble on expression in E. coli” value is on record as “not soluble”.
Take “QVAKNPAPQAVEQAQSSSSLPAPSFADELDPVPGQQQASAKTITVTTDVLTLSIDTVGGDVVHADLNQYSAELDSSDPFVLLKDTQGHQFIAQSGLVGPQGIDLSSSNRPHYNVSADSFTLADGQDELRVPMTFTANGIEYTKTYVLKRGSYALNVEYDVANNSGNNATFGMYAHLRQNLMDAGGSITMPTYRGGAYSTEDTRYKKYSFEDMQDRNLSINLADGQGWAAMIQHYFAAAWIPRNEPGTNLYTRVIGNLGDIGVRMPNKTIATGDQAKFEATLWVGPKLQQEMAAVAPNLDLVVDYGWLWFIAKPLHS”: the “soluble on expression in E. coli” value is reported as “not soluble”.

The values above are taken from the DeepSol protein solubility set.
